# From IntAct's records for PubMed 22921914
# B1: Protein SCARECROW (Arabidopsis thaliana (Mouse-ear cress)), Q9M384 (parent)
# chain: MAESGDFNGGQPPPHSPLRTTSSGSSSSNNRGPPPPPPPPLVMVRKRLASEMSSNPDYNNSSRPPRRVSHLLDSNYNTVTPQQPPSLTAAATVSSQPNPPLSVCGFSGLPVFPSDRGGRNVMMSVQPMDQDSSSSSASPTVWVDAIIRDLIHSSTSVSIPQLIQNVRDIIFPCNPNLGALLEYRLRSLMLLDPSSSSDPSPQTFEPLYQISNNPSPPQQQQQHQQQQQQHKPPPPPIQQQERENSSTDAPPQPETVTATVPAVQTNTAEALRERKEEIKRQKQDEEGLHLLTLLLQCAEAVSADNLEEANKLLLEISQLSTPYGTSAQRVAAYFSEAMSARLLNSCLGIYAALPSRWMPQTHSLKMVSAFQVFNGISPLVKFSHFTANQAIQEAFEKEDSVHIIDLDIMQGLQWPGLFHILASRPGGPPHVRLTGLGTSMEALQATGKRLSDFADKLGLPFEFCPLAEKVGNLDTERLNVRKREAVAVHWLQHSLYDVTGSDAHTLWLLQRLAPKVVTVVEQDLSHAGSFLGRFVEAIHYYSALFDSLGASYGEESEERHVVEQQLLSKEIRNVLAVGGPSRSGEVKFESWREKMQQCGFKGISLAGNAATQATLLLGMFPSDGYTLVDDNGTLKLGWKDLSLLTASAWTPRS
# partner: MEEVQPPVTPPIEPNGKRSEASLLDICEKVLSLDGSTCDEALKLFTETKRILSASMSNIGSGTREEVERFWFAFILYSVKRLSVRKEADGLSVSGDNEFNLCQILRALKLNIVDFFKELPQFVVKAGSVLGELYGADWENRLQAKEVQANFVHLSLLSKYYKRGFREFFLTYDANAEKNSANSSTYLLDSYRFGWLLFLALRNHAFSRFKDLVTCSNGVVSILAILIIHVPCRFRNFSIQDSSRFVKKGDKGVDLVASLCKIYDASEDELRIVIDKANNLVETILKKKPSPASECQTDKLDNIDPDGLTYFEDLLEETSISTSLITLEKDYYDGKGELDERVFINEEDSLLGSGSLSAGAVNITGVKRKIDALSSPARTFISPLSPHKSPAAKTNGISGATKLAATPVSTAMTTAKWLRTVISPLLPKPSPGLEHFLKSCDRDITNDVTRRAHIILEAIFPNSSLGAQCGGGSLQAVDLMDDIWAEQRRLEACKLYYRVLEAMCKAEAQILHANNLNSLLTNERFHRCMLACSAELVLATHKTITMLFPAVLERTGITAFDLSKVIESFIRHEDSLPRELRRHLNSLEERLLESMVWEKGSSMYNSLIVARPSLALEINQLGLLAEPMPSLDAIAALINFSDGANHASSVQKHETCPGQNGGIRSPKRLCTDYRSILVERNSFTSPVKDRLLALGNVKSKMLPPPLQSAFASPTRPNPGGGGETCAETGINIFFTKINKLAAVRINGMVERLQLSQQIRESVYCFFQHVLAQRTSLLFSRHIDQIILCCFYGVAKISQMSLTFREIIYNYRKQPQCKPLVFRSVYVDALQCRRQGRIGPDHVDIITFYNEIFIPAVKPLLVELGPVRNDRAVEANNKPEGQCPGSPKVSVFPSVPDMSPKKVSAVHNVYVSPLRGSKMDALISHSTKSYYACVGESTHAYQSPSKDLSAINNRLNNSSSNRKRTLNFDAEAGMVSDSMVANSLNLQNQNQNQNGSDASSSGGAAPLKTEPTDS
# Variants of: B1
# Settings: with rbr1_arath RBR1, Q9LKZ3
row,Variant,effect of a mutation on the interaction
1,L295A;E299A,disrupting interaction strength
